Reference: paper PMC3738515, “HLA-DO as the Optimizer of Epitope Selection for MHC Class II Antigen Presentation” (PLoS ONE, 2013)
Like-named read-outs stand apart in the source and are kept apart here. No end group written: not given here.

Columns and labels:
HLA-DR1 (DR1) [1] = target: T1, HLA-DR1 (DR1) (Homo sapiens, UniProt P01903+P01911, A100R/D57E/F55L/F60I/F76Y/I96L/L162R/M171V/P40L/Q125E/R42F/V115G/Y59C); assay: Fluorescent peptide association to soluble DR1 (spin-column separation, fluorescence read-out); assay type: binding
HLA-DR1 (DR1) [2] = target: T1, HLA-DR1 (DR1); assay: Dissociation of fluorescent peptide/DR1 complexes; assay type: binding; conditions: for DM sensitivity of DR1/peptide complex (dissociation in the presence of DM): 10 hours
[3] = target: recombinant soluble HLA-DO (human) (UniProt P06340); assay: SPR; DO (Ni-NTA purified) captured on anti-His antibody CM5 chip; analyte 4 µM; citrate-phosphate pH 5.5, 150 mM NaCl, 0.005% Tween-20; 27°C, 5–10 µL/min
[4] = target: co-expressed DM/DO complex (human) (UniProt P06340); assay: SPR
soluble HLA-DR1 (human) [5] = target: soluble HLA-DR1 (human)
[6] = test system: Mags.DO5 monoclonal antibody; assay: SPR binding to immobilized Mags.DO5 antibody surface
Experimental: Purified DM/DO complexes were further evaluated by binding to anti-HA and anti-His antibody immobilized chip surfaces using BIAcore Surface Plasmon Resonance (SPR) instrument (Fig. 1C and D). […] To ensure that the observed binding was due to binding of DM/DO to Mags.DO5 mAb, we preincubated DM/DO complexes with soluble Mags.DO5 prior to injecting it over Mags.DO5 immobilized surface.

HLA-DO (DO) = assay: SPR binding to DO captured on anti-His antibody surface; parameters: species or system human; conditions: soluble DM 4 µM injected over DO captured by anti-His antibody; pH 5.5, 27°C
HLA-DM (DM) = conditions: DO solution 5 µM over DM captured by anti-FLAG antibody; pH 5.5, 27°C
soluble HLA-DR1 (human) [7] = assay: fluorescent peptide association kinetics (Sephadex G-50 spin column, fluorescence); as a1 with 1 µM DM added
soluble HLA-DR1 (human) [8] = assay: fluorescent peptide association kinetics (Sephadex G-50 spin column, fluorescence); as a1 with 4 µM DO added
soluble HLA-DR1 (human) [9] = assay: fluorescent peptide association kinetics (Sephadex G-50 spin column, fluorescence); as a1 with 1 µM DM and 4 µM DO added
soluble HLA-DR1 (human) [10] = assay: fluorescent peptide association kinetics (Sephadex G-50 spin column, fluorescence); DR1 or DR1βG86Y 1 µM with fluorescent peptide 30 µM, no accessory molecules; 37°C, citrate-phosphate buffer pH 5.0; up to 10 h; unbound peptide removed on G-50 spin columns

For “CAGFKGEQGPKGEP [CII(259–273), derived from Type II Collagen peptide used to induce arthritis in mice models]”, the “Observed initial binding rate, DR1 alone” value (HLA-DR1 (DR1) [1]; DR1 1 µM, fluorescent peptide 30 µM, 37°C, Citrate-Phosphate buffer pH 5.0, slope of linear fit of early data points (~1 hour), no accessory molecules) was 500 Arbitrary Fluorescence Units min^−1, the “Observed initial binding rate, + DM and DO” value (HLA-DR1 (DR1) [1]; DR1 1 µM, peptide 30 µM, DM 1 µM and DO 4 µM, 37°C, pH 5.0, initial rate over 1 hour) was 1002 Arbitrary Fluorescence Units min^−1 and the “Observed initial binding rate, + DM” value (HLA-DR1 (DR1) [1]; DR1 1 µM, peptide 30 µM, DM 1 µM, 37°C, pH 5.0, initial rate over 1 hour) was 1593 Arbitrary Fluorescence Units min^−1. For the same molecule, the “Observed initial binding rate, + DO” value (HLA-DR1 (DR1) [1]; DR1 1 µM, peptide 30 µM, DO 4 µM, 37°C, pH 5.0, initial rate over 1 hour) was 137 Arbitrary Fluorescence Units min^−1, the “Effect of DO on peptide binding to peptide-receptive DR1 (DR-receptive)” value (HLA-DR1 (DR1) [1]; DR1 pre-incubated with unlabeled HA(anchorless) for three days, no DM) was “reduced” and the “Effect of DO (or DM+DO) on dissociation of peptide from DR1” value (HLA-DR1 (DR1) [2]; DO 4 µM, with or without DM 1 µM, 10 hour kinetic experiment, pH 5.0, 37°C) was “no effect”. For the same molecule, the “DM sensitivity of DR1/peptide complex (dissociation in the presence of DM)” value (HLA-DR1 (DR1) [2]; complexes formed over 3 days at 37°C, DM 1 µM, competing HA(306–318) 50 µM, pH 5.0, 37°C) was “DM-sensitivity”.

In the case of “HA(306–318): derived from Texas 77 flu strain HA protein peptide; immunodominant HLA-DR1 binding peptide (CPKYVKQNTLKLAT)”, the “Effect of DO on peptide binding to peptide-receptive DR1 (DR-receptive)” value (HLA-DR1 (DR1) [1]) is reported as “enhanced”, the “Enhancement of initial binding rate by DO compared to DR1 alone” value (HLA-DR1 (DR1) [1]) is reported as 3–4 folds and the “Effect of DO on maximum binding of peptide to DR1” value (HLA-DR1 (DR1) [1]; pH 5) is reported as “increasing the binding maxima”. For the same molecule, the “Observed initial binding rate, + DM” value (HLA-DR1 (DR1) [1]; pH 5) was 463 Arbitrary Fluorescence Units min^−1, the “Observed initial binding rate, + DM and DO” value (HLA-DR1 (DR1) [1]; pH 5) was 1779 Arbitrary Fluorescence Units min^−1 and the “Observed initial binding rate, + DO” value (HLA-DR1 (DR1) [1]; pH 5) was 523 Arbitrary Fluorescence Units min^−1. The “Observed initial binding rate, DR1 alone” value (HLA-DR1 (DR1) [1]; pH 5) was 132 Arbitrary Fluorescence Units min^−1, the “Effect of DO (or DM+DO) on dissociation of peptide from DR1” value (HLA-DR1 (DR1) [2]; pH 5) was “did not affect” and the “DM sensitivity of DR1/peptide complex (dissociation in the presence of DM)” value (HLA-DR1 (DR1) [2]; pH 5.0, 37°C) was “DM-resistant”.

Molecule “mutant DR1, DR1βG86Y (from UniProt P01903 26-216) (receptor)” has a response at 4 µM [3] of 100 RU.

For “soluble HLA-DR1 (from UniProt P01903 26-216) (receptor)”, the SPR binding response [4] was 337 RU.

With HA(306–318) peptide the observed initial binding rate (+ DM and DO) (Arbitrary Fluorescence Units min^-1) (soluble HLA-DR1 (human) [5]) was 1780, the observed initial binding rate (+ DM) (Arbitrary Fluorescence Units min^-1) (soluble HLA-DR1 (human) [5]) was 463 and the observed initial binding rate (+ DO) (Arbitrary Fluorescence Units min^-1) (soluble HLA-DR1 (human) [5]) was 523.

“DM/DO: co-expressed soluble DM/DO complex purified by Ni-NTA or Mags.DO5” was tested, and the “SPR binding to Mags.DO5 mAb immobilized surface after preincubation with soluble Mags.DO5” value ([6]; DM/DO preincubated with soluble Mags.DO5 prior to injection) was “about 100 RU” and the “SPR binding to Mags.DO5 mAb immobilized surface” value ([6]; Ni-NTA purified DM/DO complexes, pH 5.5 running buffer, 27°C) was “approximately 600 RU”.

For H5N1-HA1(259–274) peptide, the observed initial binding rate (+ DM and DO) (Arbitrary Fluorescence Units min^-1) (soluble HLA-DR1 (human) [5]) was 2200, the observed initial binding rate (+ DM) (Arbitrary Fluorescence Units min^-1) (soluble HLA-DR1 (human) [5]) was 665 and the observed initial binding rate (+ DO) (Arbitrary Fluorescence Units min^-1) (soluble HLA-DR1 (human) [5]) was 257.

For “DM: soluble HLA-DM purified on M2 FLAG affinity column”, the “SPR binding of DM to captured DO” value (HLA-DO (DO)) was 490 RU.

B1: DO: recombinant soluble HLA-DO heterodimer with leucine zipper, His- and HA-tags, expressed in Hi5 insect cells (protein)
chain 1: TKADHMGSYGPAFYQSYGASGQFTHEFDEEQLFSVDLKKSEAVWRLPEFGDFARFDPQGGLAGIAAIKAHLDILVERSNRSRAINVPPRVTVLPKSRVELGQPNILICIVDNIFPPVINITWLRNGQTVTEGVAQTSFYSQPDHLFRKFHYLPFVPSAEDVYDCQVEHWGLDAPLLRHWELQVPIPPPDAME
chain 2: TDSPEDFVIQAKADCYFTNGTEKVQFVVRFIFNLEEYVRFDSDVGMFVALTKLGQPDAEQWNSRLDLLERSRQAVDGVCRHNYRLGAPFTVGRKVQPEVTVYPERTPLLHQHNLLHCSVTGFYPGDIKIKWFLNGQEERAGVMSTGPIRNGDWTFQTVVMLEMTPELGHVYTCLVDHSSLLSPVSVEWRAQSEYSWRK
modifications: left off: leucine zipper (acidic or basic chain, which not stated; flanked by spacers), C-terminal, state not stated | His tag, C-terminal, kept | leucine zipper (acidic or basic chain, which not stat
For B1, the “SPR maximum binding of DO to immobilized DM” value (HLA-DM (DM)) was 500 RU.

Molecule fluorescein-CAGFKGEQGPKGEP [CII(259–273) peptide] has an observed initial binding rate (+ DM) (Arbitrary Fluorescence Units min^-1) (soluble HLA-DR1 (human) [7]) of 1590, an observed initial binding rate (+ DO) (Arbitrary Fluorescence Units min^-1) (soluble HLA-DR1 (human) [8]) of 137 and an observed initial binding rate (+ DM and DO) (Arbitrary Fluorescence Units min^-1) (soluble HLA-DR1 (human) [9]) of 1000. It also gave an observed initial binding rate (Arbitrary Fluorescence Units min^-1) (soluble HLA-DR1 (human) [10]) of 500.
